In patent publication US20210063414A1, “METHODS FOR PREVENTING AND/OR TREATING BONE LOSS CONDITIONS BY MODULATING IRISIN” (Dana-Farber Cancer Institute, Inc., priority 2018, published 2021):

Molecular target: T1, MLO-Y4 cell surface proteins (Mus musculus, UniProt P70388)
T1 construct: endogenous in cells; host or cells: MLO-Y4
T1 sequence (P70388 1-1312): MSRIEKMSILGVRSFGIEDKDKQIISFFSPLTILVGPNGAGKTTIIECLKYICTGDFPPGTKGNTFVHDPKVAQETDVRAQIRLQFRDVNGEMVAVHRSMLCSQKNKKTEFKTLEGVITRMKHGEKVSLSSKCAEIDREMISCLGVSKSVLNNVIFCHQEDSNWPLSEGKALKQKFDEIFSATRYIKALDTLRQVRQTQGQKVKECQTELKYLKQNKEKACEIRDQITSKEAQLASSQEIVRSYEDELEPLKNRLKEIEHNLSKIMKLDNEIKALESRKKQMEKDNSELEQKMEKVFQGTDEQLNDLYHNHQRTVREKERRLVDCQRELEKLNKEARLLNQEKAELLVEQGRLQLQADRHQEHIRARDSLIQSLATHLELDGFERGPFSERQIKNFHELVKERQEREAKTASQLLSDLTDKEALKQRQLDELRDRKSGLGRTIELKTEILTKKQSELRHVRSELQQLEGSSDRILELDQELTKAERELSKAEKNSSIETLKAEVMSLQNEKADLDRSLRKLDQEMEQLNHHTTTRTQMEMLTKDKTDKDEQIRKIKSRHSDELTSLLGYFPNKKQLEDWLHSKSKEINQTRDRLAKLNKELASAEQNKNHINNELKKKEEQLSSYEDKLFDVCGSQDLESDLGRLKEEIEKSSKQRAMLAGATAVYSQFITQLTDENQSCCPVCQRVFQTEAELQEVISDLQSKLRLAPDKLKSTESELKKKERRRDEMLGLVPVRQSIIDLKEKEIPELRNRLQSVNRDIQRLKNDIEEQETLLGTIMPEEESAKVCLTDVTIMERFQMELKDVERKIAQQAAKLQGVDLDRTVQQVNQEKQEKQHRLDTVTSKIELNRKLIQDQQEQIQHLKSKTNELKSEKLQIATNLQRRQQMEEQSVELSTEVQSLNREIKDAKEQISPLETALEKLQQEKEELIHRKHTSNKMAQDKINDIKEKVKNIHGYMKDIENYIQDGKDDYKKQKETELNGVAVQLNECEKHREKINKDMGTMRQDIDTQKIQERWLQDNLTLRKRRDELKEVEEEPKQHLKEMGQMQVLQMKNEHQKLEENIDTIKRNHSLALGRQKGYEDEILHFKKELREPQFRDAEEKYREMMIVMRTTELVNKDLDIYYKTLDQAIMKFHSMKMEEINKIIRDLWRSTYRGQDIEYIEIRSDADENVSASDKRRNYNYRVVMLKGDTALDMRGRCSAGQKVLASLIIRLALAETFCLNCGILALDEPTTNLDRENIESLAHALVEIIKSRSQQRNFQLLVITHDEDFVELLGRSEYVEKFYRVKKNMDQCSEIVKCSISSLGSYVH
Test: Crosslinking/co-immunoprecipitation/mass spectrometry (TMT quantitative proteomics) to identify irisin receptors
Type: binding
Details: co-precipitated protein Rad50 (RAD50_MOUSE)
How it was run: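 Relative protein abundance came from 6-plex TMT MS3 quantitation on an Orbitrap Fusion Lumos, after in-gel trypsin digestion of Coomassie-stained SDS-PAGE lanes. Input was a Ni-NTA pulldown (250 mM imidazole elution) of lysates from murine MLO-Y4 cells. These cells were treated on ice with His-tagged irisin or adipsin (10 nM, 20 min) in serum-free medium, then crosslinked with 1.5 mM DTSSP for 30 min.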

- TMT signal-to-noise ratio: 422.246
Substance: adipsin
